Experiments:
Details in all cases: protein: recombinant; tags: N-terminal 6xHis-TEV site; tRNA fold, annealed
Min Elp3 Y304A = molecular target: T1, Min Elp3 Y304A (Methanocaldococcus infernus, UniProt D5VRB9 1-534, Y304A); test: EMSA; EMSA: 250 nM tRNA, 0-20 uM Elp3, 100 mM HEPES pH 7.5, 750 mM NaCl, 25 mM DTT, 20 °C 30 min; 5% TBE gel at 4 °C
T1 sequence: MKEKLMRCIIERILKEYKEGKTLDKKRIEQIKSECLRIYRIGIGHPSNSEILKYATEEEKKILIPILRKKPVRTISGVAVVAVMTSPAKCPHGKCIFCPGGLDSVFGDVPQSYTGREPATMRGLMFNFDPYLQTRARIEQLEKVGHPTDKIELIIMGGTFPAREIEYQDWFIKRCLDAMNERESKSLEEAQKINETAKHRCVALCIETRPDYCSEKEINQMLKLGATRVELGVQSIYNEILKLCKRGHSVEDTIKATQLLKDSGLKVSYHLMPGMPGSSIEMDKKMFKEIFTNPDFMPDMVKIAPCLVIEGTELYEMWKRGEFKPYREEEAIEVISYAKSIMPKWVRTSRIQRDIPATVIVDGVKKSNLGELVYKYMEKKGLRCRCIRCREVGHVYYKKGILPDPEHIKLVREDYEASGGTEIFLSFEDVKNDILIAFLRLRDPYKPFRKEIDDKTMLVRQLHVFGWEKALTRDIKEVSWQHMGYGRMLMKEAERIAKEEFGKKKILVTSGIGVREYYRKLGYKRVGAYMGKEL

Min Elp3 K302A = molecular target: T2, Min Elp3 K302A (Methanocaldococcus infernus, UniProt D5VRB9 1-534, K302A); test: EMSA; similar affinity to WT; EMSA: 250 nM tRNA, 0-20 uM Elp3, 100 mM HEPES pH 7.5, 750 mM NaCl, 25 mM DTT, 20 °C 30 min; 5% TBE gel at 4 °C
T2 sequence: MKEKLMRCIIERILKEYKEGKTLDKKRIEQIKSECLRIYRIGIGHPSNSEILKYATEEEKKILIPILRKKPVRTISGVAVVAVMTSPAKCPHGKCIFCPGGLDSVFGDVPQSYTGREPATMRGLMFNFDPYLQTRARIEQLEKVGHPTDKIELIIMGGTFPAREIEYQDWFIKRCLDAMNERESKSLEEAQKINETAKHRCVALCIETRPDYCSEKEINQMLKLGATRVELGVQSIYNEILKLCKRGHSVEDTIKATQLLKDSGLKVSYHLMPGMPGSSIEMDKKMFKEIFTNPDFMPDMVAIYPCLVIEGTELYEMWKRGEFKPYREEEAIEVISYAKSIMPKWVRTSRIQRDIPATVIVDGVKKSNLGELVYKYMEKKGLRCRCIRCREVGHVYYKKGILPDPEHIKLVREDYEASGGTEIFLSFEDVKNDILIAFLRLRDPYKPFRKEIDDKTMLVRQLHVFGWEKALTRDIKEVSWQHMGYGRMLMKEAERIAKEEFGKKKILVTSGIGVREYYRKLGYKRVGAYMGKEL

Min Elp3 E207A = molecular target: T3, Min Elp3 E207A (Methanocaldococcus infernus, UniProt D5VRB9 1-534, E207A); test: as above
T3 sequence: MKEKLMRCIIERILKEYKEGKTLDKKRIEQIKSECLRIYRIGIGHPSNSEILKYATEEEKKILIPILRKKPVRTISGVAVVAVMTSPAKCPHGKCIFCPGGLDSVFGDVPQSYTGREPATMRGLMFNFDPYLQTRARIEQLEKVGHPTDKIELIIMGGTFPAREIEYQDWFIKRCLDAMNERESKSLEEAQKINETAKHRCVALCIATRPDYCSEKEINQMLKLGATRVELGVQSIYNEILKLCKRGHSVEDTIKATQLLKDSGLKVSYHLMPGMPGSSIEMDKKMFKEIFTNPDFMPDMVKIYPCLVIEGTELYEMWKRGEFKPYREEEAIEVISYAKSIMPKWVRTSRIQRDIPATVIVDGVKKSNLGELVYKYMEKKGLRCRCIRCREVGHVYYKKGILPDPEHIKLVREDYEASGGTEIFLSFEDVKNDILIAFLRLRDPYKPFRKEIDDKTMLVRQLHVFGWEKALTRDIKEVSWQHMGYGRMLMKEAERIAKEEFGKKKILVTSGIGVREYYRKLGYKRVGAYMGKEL

Min Elp3 I154W = molecular target: T4, Min Elp3 I154W (Methanocaldococcus infernus, UniProt D5VRB9 1-534, I154W); test: EMSA; comparable affinity to WT; EMSA: 250 nM tRNA, 0-20 uM Elp3, 100 mM HEPES pH 7.5, 750 mM NaCl, 25 mM DTT, 20 °C 30 min; 5% TBE gel at 4 °C
T4 sequence: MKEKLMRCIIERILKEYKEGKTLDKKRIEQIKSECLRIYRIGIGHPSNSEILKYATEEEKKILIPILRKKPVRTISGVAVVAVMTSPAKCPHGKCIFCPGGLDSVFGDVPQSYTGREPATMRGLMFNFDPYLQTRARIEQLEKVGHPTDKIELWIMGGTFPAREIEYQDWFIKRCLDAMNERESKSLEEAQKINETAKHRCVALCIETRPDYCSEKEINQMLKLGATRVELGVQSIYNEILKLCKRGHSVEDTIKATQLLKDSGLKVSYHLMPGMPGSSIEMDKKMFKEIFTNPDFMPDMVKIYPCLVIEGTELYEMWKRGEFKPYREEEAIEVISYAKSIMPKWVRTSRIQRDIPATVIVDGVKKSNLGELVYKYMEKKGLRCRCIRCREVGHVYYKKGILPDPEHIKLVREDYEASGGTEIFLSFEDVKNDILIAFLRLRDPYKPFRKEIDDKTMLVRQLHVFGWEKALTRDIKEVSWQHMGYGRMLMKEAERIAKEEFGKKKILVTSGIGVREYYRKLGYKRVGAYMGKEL

Min Elp3 M156W = molecular target: T5, Min Elp3 M156W (Methanocaldococcus infernus, UniProt D5VRB9 1-534, M156W); test: as above
T5 sequence: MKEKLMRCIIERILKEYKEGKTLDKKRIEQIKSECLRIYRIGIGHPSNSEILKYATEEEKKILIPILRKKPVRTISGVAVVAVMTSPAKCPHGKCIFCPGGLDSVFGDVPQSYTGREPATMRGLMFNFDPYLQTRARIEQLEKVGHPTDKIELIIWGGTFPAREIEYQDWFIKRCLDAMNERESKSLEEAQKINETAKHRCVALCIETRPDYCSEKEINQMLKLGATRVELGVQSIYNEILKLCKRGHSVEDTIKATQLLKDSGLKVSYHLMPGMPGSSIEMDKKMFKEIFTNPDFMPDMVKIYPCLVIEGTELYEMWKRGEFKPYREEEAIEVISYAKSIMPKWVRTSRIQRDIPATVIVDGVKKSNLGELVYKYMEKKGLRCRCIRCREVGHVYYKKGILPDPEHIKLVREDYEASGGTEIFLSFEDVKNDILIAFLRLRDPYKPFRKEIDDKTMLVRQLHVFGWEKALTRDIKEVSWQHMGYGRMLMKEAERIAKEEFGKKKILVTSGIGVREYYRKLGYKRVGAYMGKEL

B1: tRNA ArgUCU (structured_RNA)
RNA: GGACCCGUAGCCUAGCCUGGAUAGGGCACCGGCCUUCUAAGCCGGGGGUCGGGGGUUCAAAUCCCCCCGGGUCCGCCA
Min Elp3 Y304A
  binding signal: ~1.5 fold KD increase vs WT
Min Elp3 K302A
  binding result: binds
Min Elp3 E207A
  binding result: binds
Min Elp3 I154W
  binding result: binds
Min Elp3 M156W
  binding result: binds
